Data from patent publication US20250215104A1 (WALDEN BIOSCIENCES, published 2025).

What was measured:
[1] = biological target: T1, human soluble urokinase plasminogen activator receptor (suPAR) (human, UniProt Q03405 23-303, limits assumed); experiment: off-rate (kdis) screen of scFv clones, biosensor (Octet)
T1 construct: Target antigen of the off-rate screen; also called hsuPAR; human suPAR
T1 sequence (Q03405 23-303 limits assumed): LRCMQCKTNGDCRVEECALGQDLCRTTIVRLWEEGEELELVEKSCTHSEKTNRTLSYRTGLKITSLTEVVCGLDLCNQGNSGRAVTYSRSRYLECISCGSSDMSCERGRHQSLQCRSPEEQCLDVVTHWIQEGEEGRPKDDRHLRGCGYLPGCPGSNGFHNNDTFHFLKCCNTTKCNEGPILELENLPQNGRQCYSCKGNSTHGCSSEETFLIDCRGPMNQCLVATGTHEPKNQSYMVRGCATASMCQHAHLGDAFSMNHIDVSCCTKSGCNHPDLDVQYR

[2] = biological target: T2, human soluble urokinase plasminogen activator receptor (hsuPAR) (human, UniProt Q03405 23-303, limits assumed); experiment: BLI (Octet) off-rate screen of scFv clones
T2 construct: Target antigen of the off-rate screen; also called human suPAR; rhuPAR-His
T2 sequence (Q03405 23-303 limits assumed): as above

[3] = biological target: T3, human soluble urokinase plasminogen activator receptor (suPAR) (human, UniProt Q03405 23-303, limits assumed); experiment: BLI (Octet) off-rate screen of scFv clones
T3 construct: Target antigen of the scFv off-rate screen; also called hsuPAR; human suPAR
T3 sequence (Q03405 23-303 limits assumed): as above

[4] = biological target: T4, cynomolgus soluble urokinase plasminogen activator receptor (suPAR) (cynomolgus, UniProt Q9GK78 23-303, limits assumed); experiment: BLI (Octet) off-rate screen of scFv clones
T4 construct: Target antigen of the scFv off-rate screen; also called cynomolgus suPAR; cynomolgus uPAR

[5] = biological target: T5, human soluble urokinase plasminogen activator receptor (hsuPAR) (human, UniProt Q03405 23-303, limits assumed); experiment: off-rate screen of scFv clones (kdis), Octet BLI
T5 construct: also called human suPAR; rhuPAR-His
T5 sequence (Q03405 23-303 limits assumed): as above

T4 sequence (Q9GK78 23-303 limits assumed): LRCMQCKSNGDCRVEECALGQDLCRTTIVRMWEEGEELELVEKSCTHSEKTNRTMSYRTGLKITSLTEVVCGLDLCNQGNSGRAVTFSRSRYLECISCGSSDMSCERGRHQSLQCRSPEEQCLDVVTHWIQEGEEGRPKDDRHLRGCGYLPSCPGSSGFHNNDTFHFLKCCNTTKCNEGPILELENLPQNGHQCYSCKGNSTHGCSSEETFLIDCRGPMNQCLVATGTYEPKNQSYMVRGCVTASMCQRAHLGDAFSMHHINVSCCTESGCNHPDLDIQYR

Binder	koff [1] [s⁻¹]	koff [2] [s⁻¹]	koff [3] [s⁻¹]	koff [4] [s⁻¹]	koff [5] [s⁻¹]
suPAR_DB01_A02 (scFv, V domains shown, screened as scFv) VH: EVQLEESGAELVRPGALVKLSCKASGFNIKDYYIHWVKQRPEQGLEWIGWIDHENGNTIYDPKFQGKASITLDTSSNTAYLQLNSLTSEDTAVYYCARGYDVDWFVYWGQGTLVTVSS VL: QIVLTQSPAIMSASPGEKVTIYCSARSSVSYMYWYQQKPGSSPKPWIYRTSNLASGVPARFSGSGSGTSYSLTISSMEAEDAATYYCQQYHSYPPTFGGGTKLEIK	3.54e-07	–	–	–	–
suPAR_DB03_A12 (scFv, V domains shown, screened as scFv) VH: QVQLVQSGAEVKKPGASVKVSCKASGYTFSRYYMHWVRQAPGQGLEWIGWMNPNTGDTGYAQKFQGRVTMTRDTSTSTVYMELSSLRSEDTAVYYCARGYDVDFFVYWGQGTLVTVSS VL: DIQMTQSPSSLSASVGDRVTITCRASQGISGWLAWYQQKPGKAPKLLIYDASSLQSGVPSRFSGSGSGTDFTLTISSLQPEDFATYYCQQSYSDPLTFGGGTKVEIK	–	0.0544	–	–	–
suPAR_DB06_F01 (scFv, V domains shown) VH: QVQLVQSGAEVKKPGASVKVSCKASGGTFTSYYVHWVRQAPGQGLEWMGWIDPEGGNTSYDQKFQGRVTMTRDTSTSTVYMELSSLRSEDTAVYYCARGYDVDWFVYWGQGTLVTVSS VL: DIQMTQSPSSLSASVGDRVTITCSARSSVSYMYWYQQKPGKAPKLLIYRTSNLASGVPSRFSGSGSGTDFTLTISSLQPEDFATYYCQQYHSYPPTFGGGTKVEIK	–	–	0.00305	0.000197	–
suPAR_DB06_C05 (scFv, V domains shown) VH: QVQLVQSGAEVKKPGASVKVSCKASGGTFSSYAISWVRQAPGQGLEWMGVIDPSGGTTDYAQKFQGRVTMTRDTSTSTVYMELSSLRSEDTAVYYCARGYDVDWFVYWGQGTLVTVSS VL: DIQMTQSPSSLSASVGDRVTITCRTSQSISSFLNWYQQKPGKAPKLLIYDVSHLESGVPSRFSGSGSGTDFTLTISSLQPEDFATYYCQQYHSYPPTFGGGTKVEIK	–	–	0.373	0.0623	–
suPAR_DB06_E01 (scFv, V domains shown) VH: QVQLVQSGAEVKKPGASVKVSCKASGFNFKDYYIHWVRQAPGQGLEWMGWMDPSSGNTAYAQKFQGRVTMTRDTSTSTVYMELSSLRSEDTAVYYCARGYDVDWFVYWGQGTLVTVSS VL: DIQMTQSPSSLSASVGDRVTITCSARQSISYMYWYQQKPGKAPKLLIYRTSNLASGVPSRFSGSGSGTDFTLTISSLQPEDFATYYCQQYHSYPPTFGGGTKVEIK	–	–	0.00483	0.000126	–
suPAR_DB06_G03 (scFv, V domains shown) VH: QVQLVQSGAEVKKPGASVKVSCKASGYTFSSYYMHWVRQAPGQGLEWMGWIDPEGGNTIYAQKFQGRVTMTRDTSTSTVYMELSSLRSEDTAVYYCARGYDVDWFVYWGQGTLVTVSS VL: DIQMTQSPSSLSASVGDRVTITCSARSSVSYMYWYQQKPGKAPKLLIYRTSNLASGVPSRFSGSGSGTDFTLTISSLQPEDFATYYCQQYHSYPPTFGGGTKVEIK	–	–	0.00381	0.000231	–
suPAR_DB06_F06 (scFv, V domains shown) VH: QVQLVQSGAEVKKPGASVKVSCKASGGTFIGHYVHWVRQAPGQGLEWMGWIDHENGNTIYDQKFQGRVTMTRDTSTSTVYMELSSLRSEDTAVYYCARGYDVDWFVYWGQGTLVTVSS VL: DIQMTQSPSSLSASVGDRVTITCSARSSVSYMYWYQQKPGKAPKLLIYRTSNLASGVPSRFSGSGSGTDFTLTISSLQPEDFATYYCQQYHSYPPTFGGGTKVEIK	–	–	0.00331	0.00055	–
suPAR_DB06_G01 (scFv, V domains shown) VH: QVQLVQSGAEVKKPGASVKVSCKASGDTFTGYYMHWVRQAPGQGLEWMGWIDHENGSTIYAQKFQGRVTMTRDTSTSTVYMELSSLRSEDTAVYYCARGYDVDWFVYWGQGTLVTVSS VL: DIQMTQSPSSLSASVGDRVTITCSARSSVSYMYWYQQKPGKAPKLLIYRTSNLASGVPSRFSGSGSGTDFTLTISSLQPEDFATYYCQQYHSYPPTFGGGTKVEIK	–	–	0.00148	0.000134	–
suPAR_DB06_F05 (scFv, V domains shown) VH: QVQLVQSGAEVKKPGASVKVSCKASGDSFTGYYIHWVRQAPGQGLEWMGWIDHENGNTIYDQKFQGRVTMTRDTSTSTVYMELSSLRSEDTAVYYCARGYDVDWFVYWGQGTLVTVSS VL: DIQMTQSPSSLSASVGDRVTITCSARSSVSYMYWYQQKPGKAPKLLIYRTSNLASGVPSRFSGSGSGTDFTLTISSLQPEDFATYYCQQYHSYPPTFGGGTKVEIK	–	–	0.00531	3.1e-07	–
suPAR_DB06_F12 (scFv, V domains shown) VH: QVQLVQSGAEVKKPGASVKVSCKASGYTFSSYYMHWVRQAPGQGLEWMGWIDPENGNTIYAQKFQGRVTMTRDTSTSTVYMELSSLRSEDTAVYYCARGYDVDWFVYWGQGTLVTVSS VL: DIQMTQSPSSLSASVGDRVTITCRARQSVSYMYWYQQKPGKAPKLLIYRTSNLASGVPSRFSGSGSGTDFTLTISSLQPEDFATYYCQQYHSYPPTFGGGTKVEIK	–	–	0.00426	0.000195	–
suPAR_DB06_F09 (scFv, V domains shown) VH: QVQLVQSGAEVKKPGASVKVSCKASGYTFTTYYMHWVRQAPGQGLEWMGWIDPEGGNTIYDQKFQGRVTMTRDTSTSTVYMELSSLRSEDTAVYYCARGYDVDWFVYWGQGTLVTVSS VL: DIQMTQSPSSLSASVGDRVTITCSASQSVSYMYWYQQKPGKAPKLLIYRTSNLASGVPSRFSGSGSGTDFTLTISSLQPEDFATYYCQQYHSYPPTFGGGTKVEIK	–	–	0.00302	0.000353	–
suPAR_DB06_G02 (scFv, V domains shown) VH: QVQLVQSGAEVKKPGASVKVSCKASGYNITDYYIHWVRQAPGQGLEWMGWIDPENGSTIYDQKFQGRVTMTRDTSTSTVYMELSSLRSEDTAVYYCARGYDVDWFVYWGQGTLVTVSS VL: DIQMTQSPSSLSASVGDRVTITCRARSSVSYMYWYQQKPGKAPKLLIYRTSNLASGVPSRFSGSGSGTDFTLTISSLQPEDFATYYCQQYHSYPPTFGGGTKVEIK	–	–	0.00384	0.000375	–
suPAR_DB06_G04 (scFv, V domains shown) VH: QVQLVQSGAEVKKPGASVKVSCKASGYTFTGYYMHWVRQAPGQGLEWMGWINPEGGSTNYEQKFQGRVTMTRDTSTSTVYMELSSLRSEDTAVYYCARGYDVDWFVYWGQGTLVTVSS VL: DIQMTQSPSSLSASVGDRVTITCSARYSVSYMYWYQQKPGKAPKLLIYRTSNLASGVPSRFSGSGSGTDFTLTISSLQPEDFATYYCQQYHSYPPTFGGGTKVEIK	–	–	0.00549	0.000223	–
suPAR_DB04_E02 (scFv, V domains shown, scFv clone from phage display) VH: QVQLVQSGAEVKKPGASVKVSCKASGYTFTSYYMHWVRQAPGQGLEWMGWIDPENGSTIYDQKFQGRVTMTRDTSTSTVYMELSSLRSEDTAVYYCARGYDVDWFVYWGQGTLVTVSS VL: DIQMTQSPSSLSASVGDRVTITCRARSSVSYMYWYQQKPGKAPKLLIYATSNLASGVPSRFSGSGSGTDFTLTISSLQPEDFATYYCQQYHSYPPTFGGGTKVEIK	–	–	–	–	0.00497
suPAR_DB06_F08 (scFv, V domains shown) VH: QVQLVQSGAEVKKPGASVKVSCKASGYTFTGNYVHWVRQAPGQGLEWMGWIDHSNGNTIYDQKFQGRVTMTRDTSTSTVYMELSSLRSEDTAVYYCARGYDVDWFVYWGQGTLVTVSS VL: DIQMTQSPSSLSASVGDRVTITCSARSSVSYMYWYQQKPGKAPKLLIYRTSNLASGVPSRFSGSGSGTDFTLTISSLQPEDFATYYCQQYHSYPPTFGGGTKVEIK	–	–	0.00174	0.000537	–
suPAR_DB06_F03 (scFv, V domains shown) VH: QVQLVQSGAEVKKPGASVKVSCKASGYSFTNYYMHWVRQAPGQGLEWMGWIDHENGNTIYDQKFQGRVTMTRDTSTSTVYMELSSLRSEDTAVYYCARGNDVDWFVYWGQGTLVTVSS VL: DIQMTQSPSSLSASVGDRVTITCSASQSVSYMYWYQQKPGKAPKLLIYRTSNLASGVPSRFSGSGSGTDFTLTISSLQPEDFATYYCQQYHSYPPTFGGGTKVEIK	–	–	0.004	0.00059	–
suPAR_DB06_G06 (scFv, V domains shown) VH: QVQLVQSGAEVKKPGASVKVSCKASGFTFTAYYMHWVRQAPGQGLEWMGWIDPENGNTIYAQKFQGRVTMTRDTSTSTVYMELSSLRSEDTAVYYCARGYDVDWFVYWGQGTLVTVSS VL: DIQMTQSPSSLSASVGDRVTITCSASQSVSYMYWYQQKPGKAPKLLIYRTSNLASGVPSRFSGSGSGTDFTLTISSLQPEDFATYYCQQYHSYPPTFGGGTKVEIK	–	–	0.00431	5.28e-07	–
suPAR_DB06_F11 (scFv, V domains shown) VH: QVQLVQSGAEVKKPGASVKVSCKASGYTFTNYYMHWVRQAPGQGLEWMGWIDHENGSTIYAQKFQGRVTMTRDTSTSTVYMELSSLRSEDTAVYYCARGYDVDWFVYWGQGTLVTVSS VL: DIQMTQSPSSLSASVGDRVTITCSARSSVSYMYWYQQKPGKAPKLLIYRTSNLQSGVPSRFSGSGSGTDFTLTISSLQPEDFATYYCQQYHSYPPTFGGGTKVEIK	–	–	0.000947	0.00059	–
suPAR_DB06_F02 (scFv, V domains shown) VH: QVQLVQSGAEVKKPGASVKVSCKASGYTFTNYYMHWVRQAPGQGLEWMGWIDHENGSTSYDQKFQGRVTMTRDTSTSTVYMELSSLRSEDTAVYYCARGYDVDWFVYWGQGTLVTVSS VL: DIQMTQSPSSLSASVGDRVTITCRARQSVSYMYWYQQKPGKAPKLLIYRTSNLASGVPSRFSGSGSGTDFTLTISSLQPEDFATYYCQQYHSYPPTFGGGTKVEIK	–	–	0.00157	0.000258	–
suPAR_DB06_F04 (scFv, V domains shown) VH: QVQLVQSGAEVKKPGASVKVSCKASGYRFTSYYMHWVRQAPGQGLEWMGWIDPENGNTIYAQKFQGRVTMTRDTSTSTVYMELSSLRSEDTAVYYCARGYDVDWFVYWGQGTLVTVSS VL: DIQMTQSPSSLSASVGDRVTITCSARQSVSYMYWYQQKPGKAPKLLIYRTSNLASGVPSRFSGSGSGTDFTLTISSLQPEDFATYYCQQYHSYPPTFGGGTKVEIK	–	–	0.00574	0.000315	–
